Tests used:
CM12 (influenza A virus) = assay: ELISA on peptide, Ab 10 µg/ml
CM13 (influenza A virus) = assay: ELISA on peptide, Ab 10 µg/ml
CM14 (influenza A virus) = assay: ELISA on peptide, Ab 10 µg/ml
CM15 (influenza A virus) = assay: ELISA on peptide, Ab 10 µg/ml
CM16 (influenza A virus) = assay: ELISA on peptide, Ab 10 µg/ml
CM17 (influenza A virus) = assay: ELISA on peptide, Ab 10 µg/ml
[1] = target: M2 peptide (influenza A virus, A/Hong Kong/1/68 (H3N2)); assay: ELISA on peptide, Ab 10 µg/ml
NM11 (influenza A virus) = assay: ELISA on peptide, Ab 10 µg/ml
NM12 (influenza A virus) = assay: ELISA on peptide, Ab 10 µg/ml
NM13 (influenza A virus) = assay: ELISA on peptide, Ab 10 µg/ml
NM14 (influenza A virus) = assay: ELISA on peptide, Ab 10 µg/ml
NM15 (influenza A virus) = assay: ELISA on peptide, Ab 10 µg/ml
NM16 (influenza A virus) = assay: ELISA on peptide, Ab 10 µg/ml
NM17 (influenza A virus) = assay: ELISA on peptide, Ab 10 µg/ml
[2] = target: M2-BSA conjugate (influenza A virus, A/Hong Kong/1/68 (H3N2)); assay: peptide-BSA ELISA (++ EC50<10^-9M; + 10^-9M<EC50<10^-8M)
[3] = target: M2EG peptide conjugated with BSA (influenza A virus, A/New York/687/1995 (H3N2)); assay: as above; conditions: remark: other sources report otherwise
[4] = target: T1, M2GHTGKS peptide conjugated with BSA (influenza A virus, A/chicken/HongKong/SF1/03 (H9N2)); assay: as above; conditions: remark: other sources report otherwise
[5] = target: T2, M2KGENS peptide conjugated with BSA (influenza A virus, A/Turkey/VA/158512/02 (H7N2)); assay: as above; conditions: remark: other sources report otherwise
[6] = target: M2LTGEKS-BSA conjugate (influenza A virus, A/Hong Kong/1074/99 (H9N2)); assay: as above; conditions: remark: other sources report otherwise
[7] = target: T3, M2PHTGS peptide conjugated with BSA (influenza A virus, A/chicken/HongKong/YU427/03 (H9N2)); assay: as above; conditions: remark: other sources report otherwise
[8] = target: M2TES peptide conjugated with BSA (influenza A virus, A/Viet Nam/1203/2004 (H5N1)); assay: as above; conditions: remark: other sources report otherwise
[9] = target: M2TGEK-BSA conjugate (influenza A virus, A/Netherlands/33/03 (H7N7)); assay: as above; conditions: remark: other sources report otherwise
[10] = target: M2GHTGKS (influenza A virus, A/chicken/HongKong/SF1/03 (H9N2)); conditions: remark: other sources report otherwise
[11] = target: M2HTGEKS (influenza A virus, A/chicken/California/1002a/00 (H6N2)); conditions: remark: other sources report otherwise
[12] = target: M2KGENS (influenza A virus, A/Turkey/VA/158512/02 (H7N2)); conditions: remark: other sources report otherwise
[13] = target: M2KTGEKS (influenza A virus, A/Quail/Arkansas/16309-7/94 (H7N3NSA)); conditions: remark: other sources report otherwise
[14] = target: M2LTGS (influenza A virus, A/Hong Kong/156/97 (H5N1)); conditions: remark: other sources report otherwise
[15] = target: M2LTKGS (influenza A virus, A/Hong Kong/542/97 (H5N1)); conditions: remark: other sources report otherwise
[16] = target: M2PHTGS (influenza A virus, A/chicken/HongKong/YU427/03 (H9N2)); conditions: remark: other sources report otherwise
[17] = target: T1, M2GHTGKS peptide conjugated with BSA …; assay: peptide-BSA ELISA; conditions: remark: other sources report otherwise
[18] = target: T4, M2HTGEKS peptide conjugated with BSA (influenza A virus, A/chicken/California/1002a/00 (H6N2)); assay: peptide-BSA ELISA; conditions: remark: other sources report otherwise
[19] = target: T2, M2KGENS peptide conjugated with BSA …; assay: peptide-BSA ELISA; conditions: remark: other sources report otherwise
[20] = target: T5, M2KTGEKS peptide conjugated with BSA (influenza A virus, A/Quail/Arkansas/16309-7/94 (H7N3NSA)); assay: peptide-BSA ELISA; conditions: remark: other sources report otherwise
[21] = target: T6, M2LTGS peptide conjugated with BSA (influenza A virus, A/Hong Kong/156/97 (H5N1)); assay: peptide-BSA ELISA; conditions: remark: other sources report otherwise
[22] = target: T7, M2LTKGS peptide conjugated with BSA (influenza A virus, A/Hong Kong/542/97 (H5N1)); assay: peptide-BSA ELISA; conditions: remark: other sources report otherwise
[23] = target: T3, M2PHTGS peptide conjugated with BSA …; assay: peptide-BSA ELISA; conditions: remark: other sources report otherwise
M12 (influenza A virus) = assay: ELISA on peptide, Ab 10 µg/ml
[24] = target: T1, M2GHTGKS peptide conjugated with BSA …; assay: peptide-BSA ELISA; legend: EC50 > 10^-8M: -; conditions: remark: other sources report otherwise
[25] = target: T4, M2HTGEKS peptide conjugated with BSA …; assay: peptide-BSA ELISA; legend: EC50 > 10^-8M: -; conditions: remark: other sources report otherwise
[26] = target: T2, M2KGENS peptide conjugated with BSA …; assay: peptide-BSA ELISA; legend: EC50 > 10^-8M: -; conditions: remark: other sources report otherwise
[27] = target: T5, M2KTGEKS peptide conjugated with BSA …; assay: peptide-BSA ELISA; legend: EC50 > 10^-8M: -; conditions: remark: other sources report otherwise
[28] = target: T6, M2LTGS peptide conjugated with BSA …; assay: peptide-BSA ELISA; legend: EC50 > 10^-8M: -; conditions: remark: other sources report otherwise
[29] = target: T7, M2LTKGS peptide conjugated with BSA …; assay: peptide-BSA ELISA; legend: EC50 > 10^-8M: -; conditions: remark: other sources report otherwise
[30] = target: T3, M2PHTGS peptide conjugated with BSA …; assay: peptide-BSA ELISA; legend: EC50 > 10^-8M: -; conditions: remark: other sources report otherwise
[31] = target: M2DLTGS peptide conjugated with BSA (influenza A virus, A/Hong Kong/485/97 (H5N1)); assay: peptide-BSA ELISA (++ EC50<10^-9M; + 10^-9M<EC50<10^-8M); conditions: remark: other sources report otherwise
[32] = target: M2SG peptide conjugated with BSA (influenza A virus, A/swine/Tennessee/25/77 (H1N1)); assay: as above; conditions: remark: other sources report otherwise

B1: L66 (antibody, V domains shown)
VH: EVQLVESGGGVVRPGGSLRLSCAASGFTFDDYGMSWVRQAPGKGLEWVSGINWNGGSTGYADSVKGRFTISRDNAKNSLYLQMNSLRAEDTALYYCARDRVTMVRGVIMDYYGMDVWGQGTTVTVSS
VL: QTVVTQEPSLTVSPRGTVTLTCSSSTGAVTSGYYPGWFQLKPGQAPMSLIYSARKKHSWTPARFSGSLLGGKAALTLSGVQPEDEAEYYCLLYYGGAYVFGTGTKVTVLG
ELISA(OD450) (CM12 (influenza A virus)): 0.08 OD450 | ELISA(OD450) (CM13 (influenza A virus)): 0.08 OD450 | ELISA(OD450) (CM14 (influenza A virus)): 0.08 OD450 | ELISA(OD450) (CM15 (influenza A virus)): 0.09 OD450 | ELISA(OD450) (CM16 (influenza A virus)): 0.09 OD450 | ELISA(OD450) (CM17 (influenza A virus)): 0.12 OD450 | ELISA(OD450) [1]: 0.51 OD450 | ELISA(OD450) (NM11 (influenza A virus)): 0.09 OD450 | ELISA(OD450) (NM12 (influenza A virus)): 0.12 OD450 | ELISA(OD450) (NM13 (influenza A virus)): 0.13 OD450 | ELISA(OD450) (NM14 (influenza A virus)): 0.22 OD450 | ELISA(OD450) (NM15 (influenza A virus)): 0.2 OD450 | ELISA(OD450) (NM16 (influenza A virus)): 1.04 OD450 | ELISA(OD450) (NM17 (influenza A virus)): 0.99 OD450 | EC50 [2]: < 1 nM | EC50 [3]: 1 to 10 nM | EC50 [4]: < 1 nM | EC50 [5]: < 1 nM | EC50 [6]: < 1 nM | EC50 [7]: < 1 nM | EC50 [8]: < 1 nM | EC50 [9]: < 1 nM

B2: C40G1 (antibody, V domains shown)
VH: QLQLQESGPGLVKPSETLSLTCTVSGGSISSSFYYCGWIRQPPGKGLEWIGSIYYRGSTYYNPSLKSRVTISVDTSKNQFSLKLSSVTAADTAVYYCARRVTMVRGVKGDYFDYWGQGTLVTVSS
VL: DIQMTQSPSSLSASVGDRVTITCRASQGISSWLAWYQQKPEKVPKSLIYAASSLQSGVPSRFSGSGSGTDFTLTISSLQPEDFATYYCQQYNYYPLTFGGGTKVEIKR
% of O.D. on M2 (SEQ ID NO:1) [10]: < 10% | % of O.D. on M2 (SEQ ID NO:1) [11]: < 10% | % of O.D. on M2 (SEQ ID NO:1) [12]: < 10% | % of O.D. on M2 (SEQ ID NO:1) [13]: < 10% | % of O.D. on M2 (SEQ ID NO:1) [14]: < 10% | % of O.D. on M2 (SEQ ID NO:1) [15]: < 10% | % of O.D. on M2 (SEQ ID NO:1) [16]: < 10% | EC50 [17]: > 10 nM | EC50 [18]: > 10 nM | EC50 [19]: > 10 nM | EC50 [20]: > 10 nM | EC50 [21]: > 10 nM | EC50 [22]: > 10 nM | EC50 [23]: > 10 nM | ELISA(OD450) (CM12 (influenza A virus)): 0.1 OD450 | ELISA(OD450) (CM13 (influenza A virus)): 0.11 OD450 | ELISA(OD450) (CM14 (influenza A virus)): 0.1 OD450 | ELISA(OD450) (CM15 (influenza A virus)): 0.11 OD450 | ELISA(OD450) (CM16 (influenza A virus)): 0.76 OD450 | ELISA(OD450) (CM17 (influenza A virus)): 2.78 OD450 | ELISA(OD450) (M12 (influenza A virus)): 2.71 OD450 | ELISA(OD450) (NM11 (influenza A virus)): 0.31 OD450 | ELISA(OD450) (NM12 (influenza A virus)): 0.12 OD450 | ELISA(OD450) (NM13 (influenza A virus)): 2.41 OD450 | ELISA(OD450) (NM14 (influenza A virus)): 2.49 OD450 | EC50 [24]: > 10 nM | EC50 [25]: > 10 nM | EC50 [26]: > 10 nM | EC50 [27]: > 10 nM | EC50 [28]: > 10 nM | EC50 [29]: > 10 nM | EC50 [30]: > 10 nM | EC50 [31]: 1 to 10 nM | EC50 [3]: < 1 nM | EC50 [32]: < 1 nM | EC50 [8]: < 1 nM
